Experimental data taken from the supplement of paper PMC9170038.

Tested on: MS2 coat protein
Assay: apparent KD of MS2 coat protein; designed switch direction (-1 OFF switch, 1 ON switch): -1; higher = weaker reporter binding
Procedure, shortened: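 Normalised cluster fluorescence was curve-fitted, and each design's median over clusters is its apparent KD. Before this, SNAP-549-labelled MS2 coat protein was titrated from 0.7 or 1.5 nM, doubling to 3 µM, over RNA switches transcribed on Illumina chips by stalled E. coli RNA polymerase. Titrations had no input, 200 uM small-molecule ligand, or an oligonucleotide input, and steps lasted 0.8–1.5 h (lowest) to 10–20 min (highest).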

[1] = input ligand: microRNA oligo, concentration not stated
[2] = Eterna round: R95, input ligand: microRNA oligo, concentration not stated
[3] = Eterna round: R95, input ligand: FMN 200 uM
[4] = Eterna round: R95, input ligand: none

| Sequence | apparent KD of MS2 coat protein (input ligand: FMN 200 uM) [nM] | apparent KD of MS2 coat protein [1] [nM] | apparent KD of MS2 coat protein (input ligand: none) [nM] | apparent KD of MS2 coat protein [2] [nM] | apparent KD of MS2 coat protein [3] [nM] | apparent KD of MS2 coat protein [4] [nM] |
| --- | --- | --- | --- | --- | --- | --- |
| UUCGUGCAGCUUUGCUGUACGAGUACAUGAGGAUCACCCAUGUAGGAUAUGGUACGCUUUGCGUGCCAGAAGGACGUGCGUUAG [salish99_ExNG3_r04_002] (Eterna round: R96, puzzle: Exclusion NG 3) | 73.4 | 34.1 | 42.1 | – | – | – |
| UCACGGGACUGAGGAUAUACAUCAACCAUGGUUGUAGAAGGCAGAAGGUUGGAUCAUAUACUAAACAUGAGGAUCACCCAUGUU [JR_ExcNG1_Sub030] (Eterna round: R96, puzzle: Exclusion NG 1) | 23.6 | 19.9 | 20.7 | – | – | – |
| ACUGGAGCAGGAUAUACAUUCGUGCUUCGGCACGUAAGAUCACAUGAGGAUCACCCAUGUAGAAGGGCUCCAGU [E2/5-D1] (Eterna round: R97, puzzle: Exclusion 2) | 970 | – | 122 | – | – | – |
| GUCUGGUUAGGAUAUACAGUGUCCACGAGUUAGUUGCCCUAACAUGAGGAUCACCCAUGUAGAAGGAGCGAGAA [Erisared] (Eterna round: R96, puzzle: Exclusion 2) | 22.7 | 13.3 | 16.6 | – | – | – |
| GGGCCGGCCGGAGGAUAUGCGGCUUGGUUGGUCGGUGGGCCGGCCGGGACAUGAGGAUCACCCAUGUAGAAGGCUGGUUGGUUC [less GC, MS2 in another position, A 14%] (Eterna round: R96, puzzle: Exclusion NG 2) | 58.2 | 42.8 | 60.7 | – | – | – |
| AAUUAACAUGUAGGAUAUCUGCACGUUUAGUGCAGAGAAGGACAUGAGGAUCACCCAUGUAUAGCGACUUCGGUCGCAAUAAUU [ENG1/2-B2] (Eterna round: R96, puzzle: Exclusion NG 1) | 377 | 105 | 131 | – | – | – |
| UAUUUGUCAGGAUAUGAGUCGUAGAACAAUAGUACUACGUCUCAGAAGGGACAUGAGGAUCACCCAUGUGCCUC [Fiskers Ex 4 Super Stable 44 mod 29] (puzzle: Exclusion 4) | – | – | – | 25.5 | – | – |
| GGUAGAGUGGCAGGAUAUCCGUCUGUUUCAGUCGGAGAAGGGCCACAGUCACUGGGUCCAAAUAUGGGUGACCAUGUAUCUACC [pwkr exNG1 F6.4] (Eterna round: R96, puzzle: Exclusion NG 1) | 22 | 28.4 | 34.8 | – | – | – |
| GAUGGACAUGAGGAUCACCCAUGUAAGGAUAUUGAUUAUGGUUAUAAAUAAUUAUGGUCAAGAAGGUACUCGUC [-17.8, -14.8 kcal, A 34%] (Eterna round: R97, puzzle: Exclusion 1) | 114 | – | 147 | – | – | – |
| UGCAUGUCAGGAUAUCGUGCAUACAACGAAAGUUCUAUGUGCGAGAAGGGACAUGAGGAUCACCCAUGUCUUAG [Omei Ex4 A18] (Eterna round: R97, puzzle: Exclusion 4) | 67.1 | – | 22.6 | – | – | – |
| AUUUAAUUUAGCGAGAUCACAUGAGGAUCACCCAUGUAUAUAUAGGAUAUCAGCUCGAUUAGAGCUGAGAAGGAUAUAUACCGC [ExNG3/7-A1] (Eterna round: R96, puzzle: Exclusion NG 3) | 170 | 98.7 | 82 | – | – | – |
| GACCAGGUAGGAUAUGCAGGGUCGGACUUGAGGAUCACCCAAGUGGCCAAAGUGCGUCCCGCAGAAGGGCCGAAAA [Isisusge] (Eterna round: R97, puzzle: Exclusion 5) | 215 | – | 1230 | – | – | – |
| GUAAAUCAUGUAGGAUAUGCAUAGCAAAGCUAUGCAGAAGGACAUGAGGAUCACCCAUGUCAUUCCGUCUGGAGACAGACGGGA [Mat - Exclusion NG 1 - Mod of JL - D58] (Eterna round: R96, puzzle: Exclusion NG 1) | 270 | 22.5 | 36.7 | – | – | – |
| GUGCAGCGAGGAUAUCCAGACGGGUCCAGUACGUGUCUUGGACUUGAGGAUCACCCAAGUAGAAGGCGUCUCAG [salish99_ex2_r4_611] (Eterna round: R97, puzzle: Exclusion 2) | 50.9 | – | 114 | – | – | – |
| UACAUGAGGAUCACCCAUGUUUUGUCGUGUAUGGUAUUUAUCUAGGAUAUCAAUCUAUUUAUUUAUGAGAAGGAGAAUAUUAAU [JMF's solution 13] (Eterna round: R96, puzzle: Exclusion NG 3) | 39.6 | 25.7 | 42.3 | – | – | – |
| UCCGAACAUGAGGAUCACCCAUGUGAGGAUAUCCCGAGAUUAAAUGCCGCAAGAAGGCGGAGAAGGCGCAUGGG [Biditiinen] (puzzle: Exclusion 1) | – | – | – | 17.3 | 20.6 | 19.5 |
| AAGGAUAGAGGAUAUACAUAGAUACAGAUUCAUGUAGUCCUACAUGAGGAUCACCCAUGUAGAAGGCUAUCCUA [Fiskers Ex 2 - 12] (Eterna round: R96, puzzle: Exclusion 2) | 103 | 14.3 | 18.7 | – | – | – |

| Sequence | apparent KD of MS2 coat protein (input ligand: FMN 200 uM) [nM] | apparent KD of MS2 coat protein [1] [nM] | apparent KD of MS2 coat protein (input ligand: none) [nM] | apparent KD of MS2 coat protein [2] [nM] | apparent KD of MS2 coat protein [3] [nM] | apparent KD of MS2 coat protein [4] [nM] |
| --- | --- | --- | --- | --- | --- | --- |
| GAAAAGGUAGGAUAUACGAAAAAAAAGGGUAGAAAAAAAAUACAUGAGGAUCACCCAUGUAGAAGGACCAAAAG [salish99_ex2_r3_060] (puzzle: Exclusion 2) | – | – | – | 23.3 | 24.4 | 22.5 |
| GGAAUGAGAGAGGAUAUGGGAGGGAGGACCGGACCAGAAGGCUCGACAUGAGGAUCACCCAUGUGGAGAUCCUC [AK-MS2ROC-r4-exclusion6-6.11] (Eterna round: R97, puzzle: Exclusion 6) | 236 | – | 1480 | – | – | – |
| ACAUGAGGAUCACCCAUGUGAAAACAAUGGCUGACUUAGAGAUAGGAUAUAUGUGCAUAUCAAACAUAGAAGGGUCAUUACUGG [Deportation 89 - Jieux - Exclusion NG 3] (Eterna round: R96, puzzle: Exclusion NG 3) | 37.9 | 34.5 | 39.3 | – | – | – |
| UAGCCUUUAGUUAGGAUAUGAUAUGGGAACCAUUAUCAGAAGGAACAUGAGGAUCACCCAUGUACCGACAGGGA [Eternabot (L2) Solution 9] (Eterna round: R97, puzzle: Brourd's mod of Exclusion 4) | 19.9 | – | 12.3 | – | – | – |
| ACUUAUCAUGUAGGAUAUGCGUGGCGAAGCUAUGCAGAAGGACAUGAGGAUCACCCAUGUUUUAGCGUCUGCGUACAGAUGCGU [JL ENG1 1.45] (Eterna round: R96, puzzle: Exclusion NG 1) | – | 39 | – | – | – | – |
| GGCAUGUAAGGAUAUGCCACUGAGUGCUUUGCGCUCAGAAAGCAGAAGGUACAUGAGGAUCACCCAUGUGAUAA [jl-ex4-4.53 ViennaUCT mod] (Eterna round: R97, puzzle: Exclusion 4) | 945 | – | 650 | – | – | – |
| AAUCUUCUAGGAUAUAUAUGGUAGCGGGAGAACCCAGUCACACAUGAGGAUCACCCAUGUAGAAGGAGAAUAGG [Eternabot (L1) Solution 87] (Eterna round: R97, puzzle: Exclusion 2) | 107 | – | 99.7 | – | – | – |
| UAAUAGGCAGGAUAUACAUGAGGAUCACCCAUGUAAAUUUUUCGUUUAACUUGAAUGUGUAGAAGGGCCAUAAA [Ex3 #53] (Eterna round: R97, puzzle: Exclusion 3) | 20.6 | – | 22.6 | – | – | – |
| ACACUGCGAGGAUAUACAUGAGGAUCACCCAUGUAUCGGUAGUCAAGGUUAAUUUAAGGUAGAAGGCGCGUAUU [JR_Ex3_Sub007] (Eterna round: R97, puzzle: Exclusion 3) | 26.4 | – | 24 | – | – | – |
| CCAGCGUAUGUGAGGAUAUGCUGGUCCUUGGAUCAGCAGAAGGCACAUGAGGAUCACCCAUGUGAGAGCGUUGG [JL bmx4 3.37] (Eterna round: R96, puzzle: Brourd's mod of Exclusion 4) | 187 | 25.6 | 30.4 | – | – | – |
| AUAUAGCGAGGAUAUACAUGAGGAUCACCCAUGUGGUAGUAGAUACGGUAGAGAUAGUGUAGAAGGCGCUAUGA [EX3 #9] (Eterna round: R97, puzzle: Exclusion 3) | 226 | – | 233 | – | – | – |
| UCAAGACAUGAGGAUCACCCAUGUCAGGAUAUCUAGGUUCGCUAUUUCAUUGUUAACGAGAGAAGGGACAUGAU [EX1 C.13] (Eterna round: R97, puzzle: Exclusion 1) | 22.9 | – | 18 | – | – | – |
| CUUUCGUCUGUGGGUGGUGACAUGAGGAUCACCCAUGUUUUGCUCGUCUUGUCCCGGGCCCGGCGCCCGGGCCCGGG [-38.7, -62.5, A 8%] (Eterna round: R97, puzzle: Sensor, turn-off variant 1) | 1210 | – | 1340 | – | – | – |
| GAUCGCCGUGUCAGGAUAUCUUGUGUACCCACGUUAGAGAAGGGACAUGAGGAUCACCCAUGUACCCUGGUUCU [Brourd's mod of Exclusion 4 (MOD3 of Nando's BmEX4 C.21)] (Eterna round: R97, puzzle: Brourd's mod of Exclusion 4) | 18.7 | – | 17.8 | – | – | – |
| AAGAAACGAGGAUAUACAAUUGAGUGAGAGAGGGAAGUGUGACAUGAGGAUCACCCAUGUAGAAGGCGUAAGAG [JR_Exclu2_Sub085] (puzzle: Exclusion 2) | – | – | – | 79.5 | 124 | 73.9 |
| CUGUACAUAGGAUAUAGUUGUUUUUACAUGAGGAUCACCCAUGUUACUCCUCUCUCUCUUCUAGAAGGAUGUUUCU [JR_E5_Sub008] (puzzle: Exclusion 5) | – | – | – | 63.8 | – | – |
